Results reported in PMC5940361, “Human LINE-1 retrotransposition requires a metastable coiled coil and a positively charged N-terminus in L1ORF1p” (eLife, 2018).
One block for each molecule: values may come before it.

Key:
[1] = target: hL1ORF1p-Δcons (non-conserved N-terminal portion of human L1ORF1p, GPHM1-E103) (human) (UniProt Q9UN81); experiment: SEC-MALS; hL1ORF1p-Δcons at 5.2 mM, Superdex 75 (10/300 GL), gel filtration buffer; monomer to dimer
[2] = target: the molecule itself; experiment: SEC-MALS; Superdex 200 (10/300 GL), gel filtration buffer (10 mM HEPES pH 7.5, 300 mM NaCl, 1 mM DTT)

- stoichiometry N [1]: 2
Molecule: hL1ORF1p-Δcons (non-conserved N-terminal portion of human L1ORF1p, GPHM1-E103) (from UniProt Q9UN81 1-103) (domain or fragment)

B1: hL1ORF1p-cc (coiled coil domain of human L1ORF1p, GPHMS53-Y152) (domain or fragment)
chain: GPHMSELREDIQTKGKEVENFEKNLEECITRITNTEKCLKELMELKTKARELREECRSLRSRCDQLEERVSAAEDEINEIKREGKFREKRIKRNEQSLQEIWDY
notes: residues printed before S53 in the construct's description (GPHMS53-Y152); not from L1ORF1p; human LINE-1 ORF1 protein (L1ORF1p) of the L1.3 element, residues S53-Y152, amplified from a plasmid with the M121A/M125I/M128I triple mutation; The M of GPHM probably stands at position 52 in place of Y52 (the structure is described as residues 52-152); also called L1ORF1p coiled coil domain; coiled coil …
- stoichiometry N [2]: 3

B2: hL1ORF1p-ΔNTR (human L1ORF1p without the NTR, GPHMS53-M338) (domain or fragment)
chain: GPHMSELREDIQTKGKEVENFEKNLEECITRITNTEKCLKELMELKTKARELREECRSLRSRCDQLEERVSAAEDEINEIKREGKFREKRIKRNEQSLQEIWDYVKRPNLRLIGVPESDVENGTKLENTLQDIIQENFPNLARQANVQIQEIQRTPQRYSSRRATPRHIIVRFTKVEMKEKMLRAAREKGRVTLKGKPIRLTADLSAETLQARREWGPIFNILKEKNFQPRISYPAKLSFISEGEIKYFIDKQMLRDFVTTRPALKELLKEALNMERNNRYQPLQNHAKM
notes: residues printed before S53 in the construct's description (GPHMS53-M338); not from L1ORF1p; also called remainder of human L1ORF1p; truncated trimer; not shown: His6, N-terminal, cleaved
- stoichiometry N [2]: 3
